This note sets out measurements from article PMC12483203.

The assay deals with Hu-1 G614 S-6P homotrimer (SARS-CoV-2 Wuhan-Hu-1 D614G spike ectodomain, hexaproline-stabilised) (SARS-CoV-2) (UniProt P0DTC2). Put plainly: SEC. A general note: Size exclusion chromatography separates by hydrodynamic size, large species first.

Usually stoichiometry N stands for a count of units in the complex or per binding partner. In turn, “Hu-1 G614 S-6P homotrimer (SARS-CoV-2 Wuhan-Hu-1 D614G spike ectodomain, hexaproline-stabilised) (from UniProt P0DTC2 14-1211) (natural protein)” displayed a stoichiometry N of 3.
